Data on 1 substance can be found in PMC10922795.

Holding throughout (experiment): SPR
Experiment [1] deals with Igh^g2A10 mutant Fab J2/L114F (mouse).
For experiment [2], the target named is Igh^g2A10 mutant Fab J2/L114F with LC_Q106K (mouse).
Experiment [3] has as its target Igh^g2A10 mutant Fab J1/L114F with LC_Q106R (mouse).

In experiment [1], “recombinant PfCSP (from UniProt Q7K740 19-374) (natural protein)” gave a fold increase in affinity over the J2 UCA of 1.49 fold. Besides, the fold increase in affinity over J2/L114F in experiment [2] stood at 65 fold. The fold increase in affinity over J1/L114F in experiment [3] came to 18.2 fold.
